B1: human glucocorticoid receptor (GR) (receptor)
chain: MDSKESLTPGREENPSSVLAQERGDVMDFYKTLRGGATVKVSASSPSLAVASQSDSKQRRLLVDFPKGSVSNAQQPDLSKAVSLSMGLYMGETETKVMGNDLGFPQQGQISLSSGETDLKLLEESIANLNRSTSVPENPKSSASTAVSAAPTEKEFPKTHSDVSSEQQHLKGQTGTNGGNVKLYTTDQSTFDILQDLEFSSGSPGKETNESPWRSDLLIDENCLLSPLAGEDDSFLLEGNSNEDCKPLILPDTKPKIKDNGDLVLSSPSNVTLPQVKTEKEDFIELCTPGVIKQEKLGTVYCQASFPGANIIGNKMSAISVHGVSTSGGQMYHYDMNTASLSQQQDQKPIFNVIPPIPVGSENWNRCQGSGDDNLTSLGTLNFPGRTVFSNGYSSPSMRPDVSSPPSSSSTATTGPPPKLCLVCSDEASGCHYGVLTCGSCKVFFKRAVEGQHNYLCAGRNDCIIDKIRRKNCPACRYRKCLQAGMNLEARKTKKKIKGIQQATTGVSQETSENPGNKTIVPATLPQLTPTLVSLLEVIEPEVLYAGYDSSVPDSTWRIMTTLNMLGGRQVIAAVKWAKAIPGFRNLHLDDQMTLLQYSWMFLMAFALGWRSYRQSSANLLCFAPDLIINEQRMTLPCMYDQCKHMLYVSSELHRLQVSYEEYLCMKTLLLLSSVPKDGLKSQELFDEIRMTYIKELGKAIVKREGNSSQNWQRFYQLTKLLDSMHEVVENLLNYCFQTFLDKTMSIEFPEMLAEIITNQIPKYSNGNIKKLLFHQK
notes: Endogenous protein in peripheral blood (lymphocyte) lysate of patients and controls
B2: human FK506 Binding Protein 51 (FKBP51) (other)
chain: MTTDEGAKNNEESPTATVAEQGEDITSKKDRGVLKIVKRVGNGEETPMIGDKVYVHYKGKLSNGKKFDSSHDRNEPFVFSLGKGQVIKAWDIGVATMKKGEICHLLCKPEYAYGSAGSLPKIPSNATLFFEIELLDFKGEDLFEDGGIIRRTKRKGEGYSNPNEGATVEIHLEGRCGGRMFDCRDVAFTVGEGEDHDIPIGIDKALEKMQREEQCILYLGPRYGFGEAGKPKFGIEPNAELIYEVTLKSFEKAKESWEMDTKEKLEQAAIVKEKGTVYFKGGKYMQAVIQYGKIVSWLEMEYGLSEKESKASESFLLAAFLNLAMCYLKLREYTKAVECCDKALGLDSANEKGLYRRGEAQLLMNEFESAKGDFEKVLEVNPQNKAARLQISMCQKKAKEHNERDRRIYANMFKKFAEQDAKEEANKAMGKKTSEGVTNEKGTDSQAMEEEKPEGHV
notes: as for B1

Legend:
[1] = biological target: B2; test: co-immunoprecipitation from human peripheral blood samples, densitometry, n=22
[2] = biological target: B2; test: co-immunoprecipitation from human peripheral blood samples, densitometry, n=21
[3] = biological target: B1; test: co-immunoprecipitation with anti-FKBP51 antibody from human peripheral blood protein, Western blot for GR

Row | GR-FKBP51 complex level, PTSD patients relative to healthy controls (CTRL = 1) [1] | GR-FKBP51 complex level, PTSD patients relative to trauma controls (Trauma = 1) [2] | binding result [3] | Binder
1 | 1.41 fold of control | 1.46 fold of control | – | B1
2 | – | – | binds | B2

Source: patent US20220041691A1, “METHODS FOR DIAGNOSING OR TREATING POST-TRAUMATIC STRESS DISORDER, AND COMPOSITIONS THEREFOR” (Centre for Addiction and Mental Health, priority 2018, published 2022)
